Data as given in patent publication US20040229288A1 (AJINOMOTO, published 2004).

Assays:
[1] = target: GPIb-mIgG2aFc chimeric protein (N-terminus side region of human glycoprotein Ib, amino acid numbers 1-319, fused to the Fc region of mouse immunoglobulin γ2a) (human (glycoprotein Ib part); mouse (immunoglobulin γ2a Fc part)); assay: Eu-labelled vWF (500 ng/ml) on captured chimeric protein, ristocetin 2 mg/ml, no inhibitor
[2] = target: GPIb-mIgG2aFc chimeric protein (N-terminus side region of human glycoprotein Ib, amino acid numbers 1-319, fused to the Fc region of mouse immunoglobulin γ2a) (human (glycoprotein Ib part); mouse (immunoglobulin γ2a Fc part)); assay: Eu-labelled vWF with botrocetin on captured chimeric protein, in the presence of the competitor AJvW-2 (as the table names it)
[3] = target: GPIb-mIgG2aFc chimeric protein (N-terminus side region of human glycoprotein Ib, amino acid numbers 1-319, fused to the Fc region of mouse immunoglobulin γ2a) (human (glycoprotein Ib part); mouse (immunoglobulin γ2a Fc part)); assay: Eu-labelled vWF (500 ng/ml solution) with botrocetin (500 ng/ml) on chimeric protein captured by anti-mouse immunoglobulin antibodies, no inhibitor
[4] = target: GPIb-mIgG2aFc chimeric protein (N-terminus side region of human glycoprotein Ib, amino acid numbers 1-319, fused to the Fc region of mouse immunoglobulin γ2a) (human (glycoprotein Ib part); mouse (immunoglobulin γ2a Fc part)); assay: Eu-labelled vWF (500 ng/ml) on captured chimeric protein, ristocetin 0.5 mg/ml, no inhibitor
[5] = target: GPIb-mIgG2aFc chimeric protein (N-terminus side region of human glycoprotein Ib, amino acid numbers 1-319, fused to the Fc region of mouse immunoglobulin γ2a) (human (glycoprotein Ib part); mouse (immunoglobulin γ2a Fc part)); assay: Eu-labelled vWF (500 ng/ml) on captured chimeric protein, ristocetin 0.25 mg/ml, no inhibitor
[6] = target: GPIb-mIgG2aFc chimeric protein (N-terminus side region of human glycoprotein Ib, amino acid numbers 1-319, fused to the Fc region of mouse immunoglobulin γ2a) (human (glycoprotein Ib part); mouse (immunoglobulin γ2a Fc part)); assay: Eu-labelled vWF on captured chimeric protein, ristocetin 0 mg/ml, competitor recombinant AS1051 at 20 µg/ml
[7] = target: GPIb-mIgG2aFc chimeric protein (N-terminus side region of human glycoprotein Ib, amino acid numbers 1-319, fused to the Fc region of mouse immunoglobulin γ2a) (human (glycoprotein Ib part); mouse (immunoglobulin γ2a Fc part)); assay: Eu-labelled vWF on captured chimeric protein, ristocetin 1 mg/ml, competitor recombinant AS1051 at 20 µg/ml
[8] = target: GPIb-mIgG2aFc chimeric protein (N-terminus side region of human glycoprotein Ib, amino acid numbers 1-319, fused to the Fc region of mouse immunoglobulin γ2a) (human (glycoprotein Ib part); mouse (immunoglobulin γ2a Fc part)); assay: Eu-labelled vWF on captured chimeric protein, ristocetin 0.5 mg/ml, competitor recombinant AS1051 at 20 µg/ml
[9] = target: GPIb-mIgG2aFc chimeric protein (N-terminus side region of human glycoprotein Ib, amino acid numbers 1-319, fused to the Fc region of mouse immunoglobulin γ2a) (human (glycoprotein Ib part); mouse (immunoglobulin γ2a Fc part)); assay: Eu-labelled vWF on captured chimeric protein, ristocetin 2 mg/ml, competitor recombinant AS1051 at 20 µg/ml
[10] = target: GPIb-mIgG2aFc chimeric protein (N-terminus side region of human glycoprotein Ib, amino acid numbers 1-319, fused to the Fc region of mouse immunoglobulin γ2a) (human (glycoprotein Ib part); mouse (immunoglobulin γ2a Fc part)); assay: Eu-labelled vWF (500 ng/ml) on captured chimeric protein, ristocetin 1 mg/ml, no inhibitor
[11] = target: GPIb-mIgG2aFc chimeric protein (N-terminus side region of human glycoprotein Ib, amino acid numbers 1-319, fused to the Fc region of mouse immunoglobulin γ2a) (human (glycoprotein Ib part); mouse (immunoglobulin γ2a Fc part)); assay: Eu-labelled vWF (500 ng/ml) on captured chimeric protein, ristocetin 0 mg/ml, no inhibitor
[12] = target: GPIb-mIgG2aFc chimeric protein (N-terminus side region of human glycoprotein Ib, amino acid numbers 1-319, fused to the Fc region of mouse immunoglobulin γ2a) (human (glycoprotein Ib part); mouse (immunoglobulin γ2a Fc part)); assay: Eu-labelled vWF on captured chimeric protein, ristocetin 0.25 mg/ml, competitor recombinant AS1051 at 20 µg/ml
[13] = target: T1, human von Willebrand factor (human, UniProt P04275 764-2813); assay: Ratio of control count to count with inhibitor; Eu-labelled chimeric protein on immobilised vWF, botrocetin in liquid phase
T1 construct: also called vWF; von Willebrand factor labeled with europium (Eu)
Description: A TBS solution (50 μl) containing human von Willebrand factor (2.5 μg/ml) was added to each well of a 96-well plate, and the von Willebrand factor was immobilized as a solid phase overnight at 4° C. Each well was washed once with TBS (150 μl) and blocked with TBS containing 5% BSA for about 3 hours. Each well of the plate was washed twice with TBS (150 μl), and then added with 25 μl of an assay buffer (Assay Buffer, Wallac DELFIA 1244-106, produced by Wallac, composition was mentioned in Example 4 <2>) or a recombinant AS1051 (in which Cys81 was replaced with Ala) at a final concentration of 20 μg/ml, further added with the assay buffer (25 μl) containing the europium (Eu)-labeled chimeric protein prepared in Example 4 <2> (100 ng/ml) and botrocetin (500 ng/ml), and left stand at room temperature for 3 hours. Each well of the plate was washed 5 times with TBS ([…]) containing 0.05% Tween-20, then added with 100 μl of a fluorescence enhancement buffer (Enhancement solution, 1244-104, produced by Wallac, composition was mentioned in Example 4 <2>), and shaken for 1 minute. Then, the amount of europium (Eu) was measured by using a 1420 ARVO multi-label counter (produced by Wallac, measurement time: 1 second). The measured values (with no addition of sample or addition of the inhibition sample) and CV value (deviation, %) are shown in Table 2.

[14] = target: T1, human von Willebrand factor; assay: Ratio of control count to count with AS1051; Eu-labelled chimeric protein on vWF immobilised with botrocetin
Description: The binding of the europium (Eu) labeled chimeric protein and the von Willebrand factor immobilized in the presence of botrocetin prepared as described above was detected as follows. According to the method mentioned in Example 4 <1>, a mixed solution (TBS) containing 2.5 μg/ml of von Willebrand factor and 2.5 μg/ml of botrocetin was added to each well of a 96-well multititer plate (microtitration plate DELFIA, 1244-550, produced by Wallac), immobilized overnight and subjected to washing, blocking and washing to prepare a von Willebrand factor immobilized plate.
Each well of the above plate was added with 25 μl of an assay buffer containing 0.5% BSA (Assay Buffer, Wallac DELFIA 1244-106, produced by Wallac, Composition: 0.5% BSA, 0.05% bovine γ-globulin, 0.01% Tween-40, 20 μM DTPA (diethylenetriamine […] acid), 50 mM Tris-HCl buffered saline (pH 7.8), 0.05% sodium azide) or the recombinant AS1051 (in which Cys81 was replaced with Ala, N. Fukuchiet al., WO 95/08573) at a final concentration of 20 μg/ml as the binding inhibition substance, further added with 25 μl of a solution of europium. […] Then, the amount of europium (Eu) was measured by using a DELFIA Research fluorophotometer (1230 ARCUS Fluorometer, produced by Wallac, measurement time: 1 second). […]

[15] = target: T1, human von Willebrand factor; assay: ELISA: GPIb-mIgGlFc culture supernatant on vWF immobilised with botrocetin, detected with biotinylated anti-mouse IgG-Fc antibodies
Description: Immobilization of a mixed solution of von Willebrand factor and botrocetin on a 96-well multititer plate was attained as follows. First, a physiological saline solution of von Willebrand factor (250 μg/ml) and a physiological saline solution of botrocetin (500 μg/ml), which were prepared in a conventional manner, were appropriately diluted, and mixed at the concentration ratios shown in FIG. 2. Then, 50 μl of each mixture was added to each well of a 96-well multititer plate (Maxisorp, produced by Nunc). The plate was left stand overnight at 4° C., and then each well was washed once with a physiological Tris buffer (150 μl, 20 mM Tris-HCl (pH 7.4), 0.15 M sodium chloride; Tris buffered saline, referred to as “TBS” hereinafter). Then, each well was added with 100 μl of TBS containing 10% BSA (bovine serum albumin), left stand for about 3 hours, and washed 3 times with TBS to obtain a von Willebrand factor immobilized plate. […]

human von Willebrand factor (from UniProt P04275 764-2813) (ligand)
Binding amount (count) [1]: 46200 counts
Average value of count with addition of AJvW-2 (10 µg/ml) [2]: 2340 counts
Average value of count in control [3]: 37300 counts
Binding amount (count) [4]: 3660 counts
Binding amount (count) [5]: 3010 counts
Binding amount in the presence of inhibition substance (count) [6]: 3250 counts
Binding amount in the presence of inhibition substance (count) [7]: 3020 counts
Binding amount in the presence of inhibition substance (count) [8]: 1850 counts
Binding amount in the presence of inhibition substance (count) [9]: 6880 counts
Binding amount (count) [10]: 13300 counts
Binding amount (count) [11]: 2820 counts
Binding amount in the presence of inhibition substance (count) [12]: 3080 counts

B1: GPIb-mIgG2aFc chimeric protein (N-terminus side region of human glycoprotein Ib, amino acid numbers 1-319, fused to the Fc region of mouse immunoglobulin γ2a) (Fc fusion)
chain: HPICEVSKVASHLEVNCDKRNLTALPPDLPKDTTILHLSENLLYTFSLATLMPYTRLTQLNLDRCELTKLQVDGTLPVLGTLDLSHNQLQSLPLLGQTLPALTVLDVSFNRLTSLPLGALRGLGELQELYLKGNELKTLPPGLLTPTPKLEKLSLANNNLTELPAGLLNGLENLDTLLLQENSLYTIPKGFFGSHLLPFAFLHGNPWLCNCEILYFRRWLQDNAENVYVWKQGVDVKAMTSNVASVQCDNSDKFPVYKYPGKGCPTLGDEGDTDLYDYYPEEDTEGDKVRATRTVVKFPTKAHTTPWGLFYSWSTASLDEPRGPTIKPCPPCKCPAPNLLGGPSVFIFPPKIKDVLMISLSPIVTCVVVDVSEDDPDVQISWFVNNVEVHTAQTQTHREDYNSTLRVVSALPIQHQDWMSGKEFKCKVNNKDLPAPIERTISKPKGSVRAPQVYVLPPPEEEMTKKQVTLTCMVTDFMPEDIYVEWTNNGKTELNYKNTEPVLDSDGSYFMYSKLRVEKKNWVERNSYSCSVVHEGLHNHHTTKSFSRTPGK
notes: Purified on Protein A from CHOK1 culture supernatant; also called europium (Eu) labeled chimeric protein
S/N ratio [13]: 35
S/N ratio [14]: 28.5

B2: GPIb-mIgGlFc chimeric protein (N-terminal region of human glycoprotein Ibα chain fused to the Fc region of mouse immunoglobulin γ1) (Fc fusion)
chain: HPICEVSKVASHLEVNCDKRNLTALPPDLPKDTTILHLSENLLYTFSLATLMPYTRLTQLNLDRCELTKLQVDGTLPVLGTLDLSHNQLQSLPLLGQTLPALTVLDVSFNRLTSLPLGALRGLGELQELYLKGNELKTLPPGLLTPTPKLEKLSLANNNLTELPAGLLNGLENLDTLLLQENSLYTIPKGFFGSHLLPFAFLHGNPWLCNCEILYFRRWLQDNAENVYVWKQGVDVKAMTSNVASVQCDNSDKFPVYKYPGKGCPTLGDEGDTDLYDYYPEEDTEGDKVRATRTVVKFPTKAHTTPWGLFYSWSTASLDVPRDCGCKPCICTVPEVSSVFIFPPKPKDVLTITLTPKVTCVVVDISKDDPEVQFSWFVDDVEVHTAQTQPREEQFNSTFRSVSELPIMHQDWLNGKEFKCRVNSAAFPAPIEKTISKTKGRPKAPQVYTIPPPKEQMAKDKVSLTCMITDFFPEDITVEWQWNGQPAENYKNTQPIMDTDGSYFVYSKLNVQKSNWEAGNTFTCSVLHEGLHNHHTEKSLSHSPGK
notes: Used as serum-free culture supernatant of transfected CHOdhfr- cells, diluted 8-fold, not purified; also called GPIb-mIgG1Fc; GPIbFcFH
binding result [15]: binds
